Test [1] concerns the target β2-RF (full-length human BK β2 subunit with C-terminal mCherry-FLAG) (human) (UniProt Q9Y691). The test can be described thus: pull-down + SEC; plasmid weight ratio 1:0.2:1.8 (TR2).
The target in test [2] is hSlo1EM-TS (modified human Slo1 BK α subunit with a C-terminal twin-strep tag) (human) (UniProt Q12791). The test can be described thus: pull-down + SEC; as a3 but plasmid weight ratio 1:0.2:1.8 (TR2).
Test [3] concerns the target β2-RF (full-length human BK β2 subunit with C-terminal mCherry-FLAG) (human) (UniProt Q9Y691). Described as above.
The target in test [4] is hSlo1EM-TS (modified human Slo1 BK α subunit with a C-terminal twin-strep tag) (human) (UniProt Q12791). The test can be described thus: pull-down + SEC; TR1 (1:1:1); three-step affinity purification: streptactin XT (Slo1), then anti-FLAG M2 resin (β2) and anti-ρ1D4 resin (β3) one after the other, in either order; eluates, input and flow-through read by dual-colour FSEC.
In test [5] the target is β2-RF (full-length human BK β2 subunit with C-terminal mCherry-FLAG) (human) (UniProt Q9Y691). Described as above.
Sequence of β2-RF (full-length human BK β2 subunit with C-terminal mCherry-FLAG) (human) (Q9Y691 whole entry): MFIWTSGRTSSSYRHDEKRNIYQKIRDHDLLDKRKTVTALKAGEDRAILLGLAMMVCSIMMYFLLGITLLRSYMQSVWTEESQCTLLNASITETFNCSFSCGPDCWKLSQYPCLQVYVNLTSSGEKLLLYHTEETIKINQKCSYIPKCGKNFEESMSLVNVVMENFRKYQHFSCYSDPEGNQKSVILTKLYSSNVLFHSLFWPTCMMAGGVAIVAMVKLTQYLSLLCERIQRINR

Sequence of β3-Gρ (full-length human BK β3a subunit with C-terminal eGFP-ρ1D4) (natural protein) (Q9NPA1 whole entry): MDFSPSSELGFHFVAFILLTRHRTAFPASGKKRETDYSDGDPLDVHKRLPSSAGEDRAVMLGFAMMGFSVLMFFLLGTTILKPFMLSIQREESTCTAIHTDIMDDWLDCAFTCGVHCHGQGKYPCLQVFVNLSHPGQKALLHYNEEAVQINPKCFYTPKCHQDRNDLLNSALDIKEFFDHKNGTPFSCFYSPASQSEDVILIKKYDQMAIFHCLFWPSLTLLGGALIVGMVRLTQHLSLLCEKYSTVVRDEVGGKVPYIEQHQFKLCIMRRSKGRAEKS
Sequence of hSlo1EM-TS (modified human Slo1 BK α subunit with a C-terminal twin-strep tag) (human) (Q12791 whole entry): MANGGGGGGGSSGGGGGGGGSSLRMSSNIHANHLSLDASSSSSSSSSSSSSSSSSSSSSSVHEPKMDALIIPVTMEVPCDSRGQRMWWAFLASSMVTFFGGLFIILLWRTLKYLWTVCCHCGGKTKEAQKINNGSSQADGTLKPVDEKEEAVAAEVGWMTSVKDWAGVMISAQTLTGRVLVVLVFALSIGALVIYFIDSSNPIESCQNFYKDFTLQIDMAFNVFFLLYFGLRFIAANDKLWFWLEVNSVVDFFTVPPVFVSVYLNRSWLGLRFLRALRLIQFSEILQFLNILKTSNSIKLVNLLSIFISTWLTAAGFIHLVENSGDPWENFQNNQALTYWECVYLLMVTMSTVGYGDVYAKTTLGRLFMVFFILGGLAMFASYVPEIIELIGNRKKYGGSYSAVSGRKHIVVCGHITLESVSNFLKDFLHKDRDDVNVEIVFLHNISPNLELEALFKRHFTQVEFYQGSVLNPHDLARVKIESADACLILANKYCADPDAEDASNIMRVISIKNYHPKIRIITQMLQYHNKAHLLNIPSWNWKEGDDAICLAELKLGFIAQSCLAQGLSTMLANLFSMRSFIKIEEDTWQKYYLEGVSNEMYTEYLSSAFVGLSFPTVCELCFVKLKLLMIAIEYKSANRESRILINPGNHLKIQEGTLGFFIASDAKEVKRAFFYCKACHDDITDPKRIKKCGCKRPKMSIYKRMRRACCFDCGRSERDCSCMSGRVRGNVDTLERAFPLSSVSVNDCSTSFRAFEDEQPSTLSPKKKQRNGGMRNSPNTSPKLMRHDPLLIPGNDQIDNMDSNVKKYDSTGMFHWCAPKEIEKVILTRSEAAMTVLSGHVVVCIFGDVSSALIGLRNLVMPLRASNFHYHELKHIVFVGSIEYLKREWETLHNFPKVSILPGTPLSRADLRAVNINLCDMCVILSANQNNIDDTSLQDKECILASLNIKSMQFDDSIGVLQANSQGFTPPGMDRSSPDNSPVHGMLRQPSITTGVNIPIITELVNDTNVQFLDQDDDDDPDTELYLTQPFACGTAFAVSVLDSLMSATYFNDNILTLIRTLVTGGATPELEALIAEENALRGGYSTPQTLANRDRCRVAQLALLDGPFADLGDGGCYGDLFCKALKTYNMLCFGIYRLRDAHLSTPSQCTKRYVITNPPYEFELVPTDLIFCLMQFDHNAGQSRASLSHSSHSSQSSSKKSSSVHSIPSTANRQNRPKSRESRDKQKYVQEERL

On to “β3-Gρ (full-length human BK β3a subunit with C-terminal eGFP-ρ1D4) (natural protein)”, for which the molar ratio of β2-RF to β3-Gρ in the triply purified complex was 0.89 mol/mol in test [1] and 2.33 mol/mol in test [5]. In addition, the stoichiometry N (β3 per 4 Slo1) in test [2] was 2.1; in test [4], 1.2. For the same substance, the values for the percent of total Slo1–β2 complexes that are ternary (hold β3 too) in test [3] and in test [5] were 58% and 14%, respectively.

The values are drawn from publication PMC12646051.
